Measurements taken from patent US7063946B2, “Methods, reagents, kits and apparatus for protein function analysis” (Meso Scale Technologies, LLC., priority 2001, dated 2006).

Key:
[1] = target: T1, IkBa peptide [SEQ ID No. 1] (Homo sapiens, UniProt P25963); assay: Phosphopeptide binding assay, peptide-BSA coated IPR plate
T1 construct: two phosphoserines in the DSGLDS motif (chemical modification); purchased New England Peptide, Fitchburg Mass; host or cells: chemical synthesis
Source text: (§1) A phosphopeptide derived from the IkBa degradation motif (SEQ ID NO: 1) and a phosphopeptide derived from c-Myc (SEQ ID NO: 4) were chemically synthesized (New England Peptide, Fitchburg Mass.) with the following sequences respectively:
A maleimide pre-activated BSA (Pierce, Pittsburgh Pa.), which contains estimated 17 active maleimide groups on the protein surface, was used as the protein carrier, and was supplied as a lyophilized preparation. Coupling of the IkBa peptide (SEQ ID NO: 1) to the pre-activated BSA was carried out with 2 mg BSA (30 nmol) and 17 equivalents of the 25 residue phosphopeptide in 400 μl PBS. The reaction was terminated with 2 mM […] after incubation at room temperature for 30 minutes. The peptide:BSA conjugate was then purified on PD-10 gel filtration column to remove uncoupled peptide and analyzed with SDS PAGE to monitor the coupling reaction. […] After coupling and purification, the column fractions containing the peptide:BSA conjugates were pooled and the protein concentration of the pooled samples was determined by BCA assay (Pierce, Pittsburgh Pa.). NaN3, (0.02%) was added to the final peptide:BSA conjugate sample for long term storage at 4° C. […]
Two βTRCP genes, βTRCP1 and βTRCP2, are present in the human genome on chromosome 5 and 10, respectively. […] The ECL signals were measured using an imaging plate reader (IPR).

[2] = target: T2, c-Myc peptide [SEQ ID No. 4] (Homo sapiens, UniProt P01106); assay: as above
T2 construct: phosphothreonine (T58) and phosphoserine (S62) (chemical modification); purchased New England Peptide, Fitchburg Mass; host or cells: chemical synthesis
Procedure: as §1
To prepare IPR plates for use in the assay, approximately 2.4 pmol BSA, 1.2 pmole IκBα-24pp peptide-BSA conjugate or 1.2 pmole of Myc-p58Tp62S peptide-BSA conjugate in 2.5 μl were deposited on the carbon working electrode surface in a single well of a 96-well plate. At this stage, the plates were dried then used or stored under desiccated condition. A few hours prior to usage, the plates were rehydrated and blocked with 3% BSA, in PBS.
Two βTRCP genes, βTRCP1 and βTRCP2, are present in the human genome on […], respectively. The coding sequence of these two genes shares over 90% identity and several full-length cDNAs of which are available as EST clones from Incyte (Palo Alto, Calif.) IMAGE #3491843 and 4237375. Also included were three other non specific EST clones as controls (Incyte, Palo alto, Calif.). […] These DNAs were used to produce the βTRCP protein and proteins encoded by the other DNAs as described in the Example 7. Proteins were transferred into wells of the peptide-coated and BSA-blocked IPR plates. […] The ECL signals were measured using an imaging plate reader (IPR).

IkBa-24pp (SEQ ID NO: 1) = target: T3, IkBa-24pp (SEQ ID NO: 1) (Homo sapiens, UniProt P25963); assay: Single-well 4-spot assay for multiple peptide-protein interactions; format: binding; details: for ECL signal, spot 1 IkBa-24pp: 4-spot plate
T3 construct: two phosphoserines in the DSGLDS motif (chemical modification); purchased New England Peptide, Fitchburg Mass; host or cells: chemical synthesis
Source text: (§2) Four phosphopeptides and their cognate binding proteins (Table 14) were selected for an integrated assay of multiple peptide-protein interaction in 4-spot Multi-Array plates. The IkBa-24pp peptide and its binding protein, βTRCP, are described in Example 10. The remaining peptides are derived from the carboxyl terminus of the EGF receptor. These phosphotyrosine containing peptides are recognized by different adaptor or effecter proteins of the receptor tyrosine kinase signaling pathway.
These four peptides were coupled to BSA carrier protein through cystine residue. After purification on PD-10 gel filtration columns, the peptide-BSA conjugates were then deposited on the assay domains of a 4-spot multi-array IPR plate (i.e., in one of the four exposed regions of working electrode defined by the dielectric layer) with an automated micro-dispensing system (Bio-Dot Dispenser, Bio-Dot, Irvine Calif.). Typically about 120 fmole of peptide:BSA conjugate in 0.25 μl was deposited on each spot of a 4-spot multi-array IPR plate. These plates are dried then used or stored under desiccated conditions. A few hours prior to usage the plates were rehydrated and blocked with 3% BSA in PBS. EST clones encoding βTRCP1 (3491843), βTRCP2 (4237375), mCBP (3872466) Grb2 (4398016) and PLCγ (4419252) (Incyte, Palo Alto, Calif.), were isolated using a QIA-prep column (QIAGEN, Los Angeles, Calif.) and used to program protein expression in a Quick coupled SP6 TnT reaction supplemented with Transcend biotin-tRNA label following the manufactures protocol (Promega, Madison Wis.). The in vitro translated and biotin-labeled proteins were then assayed in the 4-spot multi-array IPR plates under conditions described in Example 10. […] By contrast spots 2–4 in the same wells gave low ECL signals. Thus, in this assay format, each peptide not only serves as the capture agent for assaying specific interaction with its binding protein, but also at the same time serves as a control for other peptide-protein interaction to be determined in the same well. […]

[3] = target: T4, EGFR-pY1068 (SEQ ID NO: 7) (Homo sapiens, UniProt P00533); assay: as above; format: binding; details: 4-spot plate
T4 construct: phosphotyrosine at Tyr1068 (chemical modification); purchased New England Peptide, Fitchburg Mass; host or cells: chemical synthesis
Source text: as §2, with “The remaining peptides are derived from the carboxyl terminus of the EGF receptor.” left out
(§3) These four peptides were coupled to BSA carrier protein through cystine residue. After purification on PD-10 gel filtration columns, the peptide-BSA conjugates were then deposited on the assay domains of a 4-spot multi-array IPR plate (i.e., in one of the four exposed regions of working electrode defined by the dielectric layer) with an automated micro-dispensing system (Bio-Dot Dispenser, Bio-Dot, Irvine Calif.). […] These plates are dried then used or stored under desiccated conditions. A few hours prior to usage the plates were rehydrated and blocked with 3% BSA in PBS. […] The in vitro translated and biotin-labeled proteins were then assayed in the 4-spot multi-array IPR plates under conditions described in Example 10.

[4] = target: T5, EGFR-pY1148 (SEQ ID NO: 9) (Homo sapiens, UniProt P00533); assay: as above; format: binding; details: 4-spot plate
T5 construct: phosphotyrosine at Tyr1148 (chemical modification); purchased New England Peptide, Fitchburg Mass; host or cells: chemical synthesis
Source text: as §2, with “The remaining peptides are derived from the carboxyl terminus of the EGF receptor.” left out
as §3

T3 sequence (P25963 with tags, fused parts or gaps limits assumed): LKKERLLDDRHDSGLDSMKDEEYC
T2 sequence (P01106 with tags, fused parts or gaps limits assumed): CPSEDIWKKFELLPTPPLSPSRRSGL

Average ECL signal, IkBa peptide [SEQ ID No. 1] [1] | Average ECL signal, c-Myc peptide [SEQ ID No. 4] [2] | ECL signal, spot 1 IkBa-24pp (IkBa-24pp (SEQ ID NO: 1)) | fold higher ECL signal from spot 1 than with TnT mixtures containing no exogenous DNA (IkBa-24pp (SEQ ID NO: 1); spot 1 (IkBa-24pp-BSA conjugate)) | ECL signal, spot 3 EGFR-pY1068 [3] | ECL signal, spot 2 EGFR-pY1148 [4] | Substance
40879 | 2118 | 2466 | 100 fold | 24 | 36 | 3491843: IMAGE clone protein: βTRCP1 [compound 3491843]
371 | 351 | 446 | – | 126 | 278 | 3872466: IMAGE clone protein: mCBP [compound 3872466]
